Assay results: PMC10195009

These substances were tested against afucosylated IgG-specific nanobody X0 (assay: SPR). Conditions: parent: est. 0; read off a plot.

Compared with afucosylated IgG1 Fc P329A, afucosylated IgG1 Fc H268A is lower in other: log2 fold change in KD: 0.03 log2 for the first, -1.5 log2 for the second.

Compared with afucosylated IgG1 Fc I332A, afucosylated IgG1 Fc E269A is higher in other: log2 fold change in KD: 0.08 log2 for the first, 0.95 log2 for the second.

For afucosylated IgG1 Fc L328A, the other: log2 fold change in KD was -0.15 log2.
